Assay results reported in the Immune Epitope Database (IEDB).

target: HLA-A*02:01; experiment: IEDB peptide-MHC binding, purified MHC/competitive/radioactivity; filed as Kd, often an IC50 or EC50 that approximates it; ≥ and ≤ were set here for values at or beyond the usual limits of such assays; conditions: source organism: Mycobacterium tuberculosis

| Sequence | Kd [nM] |
| --- | --- |
| AIAWGAWGEV | 312 |
| AIYHPQQFV | 313 |
| ALLSDWLPA | 94.3 |
| ALVLLMLPVV | 6.8 |
| ALYLLDGLRA | 263 |
| AMALLRLPLV | 5.1 |
| AMKADIQHV | 167 |
| AMLQDMAIL | 98 |
| ATYDKGILTV | 156 |
| AVHDTLFYCV | 104 |
| FLLADERVRV | 116 |
| FLLPDAQSI | 385 |
| FLMPVEDVFI | 3.3 |
| FLTCDANLAV | 104 |
| FMSLAGFVRM | 116 |
| FVVALIPLV | 7.6 |
| GIVSGILLSI | 152 |
| GLAGTVLRFV | 109 |
| GLFLTTEAVV | 238 |
| GLGGLGLFFA | 89.2 |
| GLMTAVYLV | 8.9 |
| GLVDFVKHI | 217 |
| GLYGAQYDV | 250 |
| GLYRQWALA | 185 |

| Sequence | Kd [nM] |
| --- | --- |
| GLYYLTTEV | 20.8 |
| ILLSIARVV | 454 |
| ILSSLGLPV | 50 |
| KIFMLVTAVV | 417 |
| KLTADGVLTA | 200 |
| LALVLLMLPV | 333 |
| LLAAGVADPV | 217 |
| LLACAVIHA | 250 |
| LLATVFKLTA | 250 |
| LLCCSGVATA | 152 |
| LLFLGVVFL | 50 |
| LLFRFMRPL | 35.7 |
| LLFRFMRPLI | 83.3 |
| LLGSFELTGI | 26 |
| LLLDVTPLSL | 17 |
| LLLETSWEAI | 106 |
| LLPLGYPFV | 333 |
| LLWQDPVPA | 45.4 |
| LMIGTAAAVV | 54 |
| LMLPGMNGI | 238 |
| MALLRLPLV | 52.6 |
| MLASTLTDA | 250 |
| MLATDLSLRV | 109 |
| MLGNAPSVV | 227 |

| Sequence | Kd [nM] |
| --- | --- |
| MLQDMAILT | 167 |
| MTYAAPLFV | 13.8 |
| RIANGMGATV | 385 |
| RLLDDTPEV | 96.1 |
| RLMIGTAAA | 227 |
| RLQPQVGWEV | 178 |
| RMPAVTDLV | 125 |
| RMSRVTTFTV | 75.5 |
| SLAGFVRML | 111 |
| SLLEIGEGV | 98 |
| SLLEIGEGVV | 50 |
| SLYFGGICV | 10.6 |
| SLYFGGICVI | 167 |
| TVLRFVPPL | 76.9 |
| VLLEDGGVEV | 333 |
| VLLLDVTPL | 50 |
| WLLIDTSNA | 357 |
| WMAETTLGRV | 294 |
| YLLALRYLA | 10 |
| YLSEGDMAA | 294 |
| YLSQIAVLL | 12.1 |
| YLYVHSPAL | 5.4 |
| YTYKWETFL | 29 |
